In data set [1] the target is T1, FRAP-Tgase variant (thermostable variant of Streptomyces mobaraensis Tgase having a FRAP tetrapeptide at the N-terminal end).
T1 chain: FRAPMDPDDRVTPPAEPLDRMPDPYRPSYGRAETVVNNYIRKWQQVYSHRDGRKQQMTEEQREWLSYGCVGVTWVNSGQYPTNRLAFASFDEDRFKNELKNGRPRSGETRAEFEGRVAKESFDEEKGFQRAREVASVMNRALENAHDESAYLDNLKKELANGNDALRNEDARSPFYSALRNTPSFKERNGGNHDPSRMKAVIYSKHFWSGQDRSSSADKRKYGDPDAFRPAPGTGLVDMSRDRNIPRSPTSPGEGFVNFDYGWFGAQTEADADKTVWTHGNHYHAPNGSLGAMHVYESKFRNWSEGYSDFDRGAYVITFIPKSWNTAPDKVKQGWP

Data set [2] concerns the target T2, Pro-Tgase variant (thermostable variant of Streptomyces mobaraensis Tgase in zymogen form).
T2 chain: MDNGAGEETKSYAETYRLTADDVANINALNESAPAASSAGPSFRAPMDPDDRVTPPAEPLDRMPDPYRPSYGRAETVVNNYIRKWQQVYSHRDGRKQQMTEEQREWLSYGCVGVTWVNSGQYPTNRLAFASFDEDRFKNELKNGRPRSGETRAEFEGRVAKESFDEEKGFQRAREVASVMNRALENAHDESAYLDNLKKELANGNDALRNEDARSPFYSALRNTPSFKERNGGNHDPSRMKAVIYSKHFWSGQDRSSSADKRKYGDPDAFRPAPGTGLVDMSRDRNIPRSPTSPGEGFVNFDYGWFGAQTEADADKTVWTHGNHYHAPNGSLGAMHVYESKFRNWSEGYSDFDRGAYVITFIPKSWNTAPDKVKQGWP

B1: Streptomyces mobaraensis transglutaminase-activating tripeptidyl aminopeptidase (SM-TAP), mature, catalytically active form (protein)
chain: QADIKDRILKIPGMKFVEEKPYQGYRYLVMTYRQPVDHRNPGKGTFEQRFTLLHKDTDRPTVFFTSGYNVSTNPSRSEPTRIVDGNQVSMEYRFFTPSRPQPADWSKLDIWQAASDQHRLYQALKPVYGKNWLATGGSKGGMTATYFRRFYPNDMNGTVAYVAPNDVNDKEDSAYDKFFQNVGDKACRTQLNSVQREALVRRDEIVARYEKWAKENGKTFKVVGSADKAYENVVLDLVWSFWQYHLQSDCASVPATKASTDELYKFIDDISGFDGYTDQGLERFTPYYYQAGTQLGAPTVKNPHLKGVLRYPGINQPRSYVPRDIPMTFRPGAMADVDRWVREDSRNMLFVYGQNDPWSGEPFRLGKGAAARHDYRFYAPGGNHGSNIAQLVADERAKATAEVLKWAGVAPQAVQKDEKAAKPLAPFDAKLDRVKNDKQSALRP
In the case of B1, in data set [1], the “proteolytic cleavage by soluble SM-TAP: UPLC-MS total area count of FRAP tetrapeptide, and N-terminal sequencing” value is “N-terminal peptide sequencing, performed as described in Example 2 above, confirmed that the FRAP tetrapeptide had been removed from the N-terminal end of the FRAP-Tgase variant (SEQ ID NO:5) resulting in a mature, catalytically active Tgase variant (SEQ ID NO:6)”; the “proteolytic digestion by SM-TAP immobilized on porous solid supports: UPLC-MS, colorimetric Tgase activity assay, N-terminal sequencing” value is “Activity assay results showed that SM-TAP retained protease activity when immobilized on all the porous solid supports shown in Table 2”; the “proteolytic digestion by co-immobilized TAMEP and SM-TAP: UPLC-MS FRAP tetrapeptide area counts, N-terminal sequencing” value is “Activity assay results showed that co-immobilized TAMEP and SM-TAP retained protease activity on all the porous solid supports set forth in Table 3 below”.

B2: Streptomyces mobaraensis transglutaminase-activating M4 metalloprotease (TAMEP), mature, catalytically active form (protein)
chain: GTGNSQHSGQVQIGTTKSGSSYQMNDTTRGGHKTYNLNHGSSGTGTLFTDSDDVWGNGTNSDPATAGVDAHYGAQLTWDYYKNVHGRNGIRGDGVGAYSRVHYGNNYVNAFWDDSCFCMTYGDGNGIPLTSIDVAAHEMTHGVTSATANLTYSGESGGLNEATSDMMATAVEFWANNPADPGDYLIGEKININGDGTPLRYMDKPSKDGASKDAWYSGLGGIDVHYSSGPANHWFYLASEGSGPKDIGGVHYDSPTSDGLPVTGVGRDNAAKIWFKALTERMQSNTDYKGARDATLWAAGELFGVNSDTYNNVANAWAAINVGPRASSGVSVTSPGDQTSIVNQAVSLQIKATGSTSGALTYSATGLPAGLSINASTGLISGTPTTTGTSNVTVTVKDSAGKTGSTSFKWTVNTTGGGSVFENTTQVAIPDAGAAVTSPIVVTRSGNGPSALKVDVNITHTYRGDLTIDLVAPNGKTWRLKNSDAWDSAADVSETYTVDASSVSANGTWKLKVQDVYSGDSGTIDKWRLTF
Regarding B2, in data set [2], the “proteolytic cleavage by soluble TAMEP: UPLC-MS total ion counts of the cleaved pro-peptide, and N-terminal sequencing” value is “N-terminal peptide sequencing, performed as described in Example 2 above, confirmed that the FRAP amino acid sequence was present on the N-terminal end of the catalytically active, not mature FRAP-Tgase variant (SEQ ID NO:5)”; the “proteolytic digestion by TAMEP immobilized on porous solid supports: UPLC-MS, colorimetric Tgase activity assay, N-terminal sequencing” value is listed as “Activity assay results showed that TAMEP retained protease activity when immobilized on all the porous solid supports shown in Table 2”; the “proteolytic digestion by co-immobilized TAMEP and SM-TAP: UPLC-MS FRAP tetrapeptide area counts” value is “Activity assay results showed that co-immobilized TAMEP and SM-TAP retained protease activity on all the porous solid supports set forth in Table 3 below”.
